The source of these data is US20230054860.

The series has as its target WDR26 (endogenous) (UniProt Q9H7D7).
Chain of UniProt Q9H7D7 (Q9H7D7 whole entry): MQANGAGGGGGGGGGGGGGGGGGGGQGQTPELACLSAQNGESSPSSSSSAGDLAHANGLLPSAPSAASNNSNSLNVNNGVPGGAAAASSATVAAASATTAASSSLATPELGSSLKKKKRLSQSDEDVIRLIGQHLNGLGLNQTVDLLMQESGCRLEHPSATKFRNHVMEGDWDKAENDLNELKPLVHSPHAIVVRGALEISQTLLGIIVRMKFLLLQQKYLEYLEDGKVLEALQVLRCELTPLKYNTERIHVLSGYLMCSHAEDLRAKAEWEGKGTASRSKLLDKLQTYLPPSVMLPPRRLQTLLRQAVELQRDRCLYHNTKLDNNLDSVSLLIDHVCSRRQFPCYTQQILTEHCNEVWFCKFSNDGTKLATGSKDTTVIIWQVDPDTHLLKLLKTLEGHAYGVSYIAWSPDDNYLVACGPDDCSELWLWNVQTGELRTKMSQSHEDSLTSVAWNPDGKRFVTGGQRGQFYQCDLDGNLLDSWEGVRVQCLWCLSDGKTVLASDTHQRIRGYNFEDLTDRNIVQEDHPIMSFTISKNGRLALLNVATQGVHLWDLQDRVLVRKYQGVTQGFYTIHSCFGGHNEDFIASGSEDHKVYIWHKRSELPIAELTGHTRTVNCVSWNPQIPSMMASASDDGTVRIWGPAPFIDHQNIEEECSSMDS

For the substance AKT (endogenous), the “AKT phosphorylation levels (pAKT S473, western blot)” value is recorded as “ultimately leading to a decrease in AKT phosphorylation levels”.
